Measured values taken from patent publication US8975259B2, “Compositions and methods for inhibiting G protein signaling” (University of Rochester, priority 2007, dated 2015).

Tests used:
[1] = tested on: PI3Kγ; experiment: Gβ1γ2-dependent activation of purified p101/p110 PI3Kγ; type: biochemical; conditions: Table 5; read-out: PI3Kγ IC50
Description: (§1) Purified PLCβ2 (0.25 ng) was assayed in the presence (▴) or absence (▪) of 100 nM purified Gβ1γ2. […] Assays contained 10 ng of purified p101/p110 PI3Kγ heterodimer with or without 100 nM purified Gβ1γ2. Left panel: (▴) 100 nM Gβ1γ2 or (▪) no βγ. […] M119 or M201 and 25 nM purified GRK2 were added simultaneously to 250 nM biotinylated Gβ1γ2 (bGβ1γ2) immobilized on streptavidin agarose. GRK2 was detected with antibody to GRK2. Data are representative (mean ±SEM, except D) repeated at least three times each. […] 30 nM bGβ1γ2 was incubated with either 30 nM PLCβ2 or PLCβ3 in the presence or absence of M119 or M201 for 16 h at 4° C. before precipitation with avidin agarose and detection with PLCβ2,or Gβ antibodies. […] Same as 4E with PLCβ3.
(§2) Nevertheless, M119 and M201 were tested in in vitro reconstitution assays of Gβγ-dependent activation of PLCβ2, PLCβ3 and PI3Kγ and binding to GRK2. […] These are only two of multiple diverse compounds identified, indicating potential for multiple modes of Gβγ-dependent target modulation by these small molecules.

[2] = tested on: PLCβ3; experiment: Gβ1γ2-dependent activation of purified PLCβ3; type: biochemical; conditions: Table 4; read-out: PLC β3 IC50
Description: as §1
The ability of NSC119910 analogs to selectively modulate activation PLC-β2 and -β3 was analyzed. In this assay, PLC-β2 and PLC-β3 were purified and PLC enzymatic activity was measured in the presence or absence of purified βy and in the presence or absence of analog.
as §2

[3] = molecular target: T1, Gβ1γ2 (Gβ1 mutants) (UniProt P54311+P63212, D186A); experiment: Phage ELISA: binding of peptide-displaying phage to wild-type or alanine-substituted b-βγ; parameters: species or system rat; conditions: Gβ1 Asp186Ala; mean ± SD
T1 construct: made in house; host or cells: Sf9 insect cells (baculovirus), partially purified via (His)6-Gαi1 on Ni-NTA
Description: (§3) Wild-type Gβ1 and Gp1 mutants were made in the baculovirus vector PDW464 which encodes a biotinylation site at a lysine upstream of the amino terminus of Gβ1 (Goubaeva, et al. (2003) supra). Mutants were generated by overlap extension PCR using standard protocols. The wild-type and mutant Gβ1 constructs consisted of a 20 amino acid biotin acceptor peptide (BAP) sequence fused in-frame with the amino-terminus of rat Gβ1 subunit. When coexpressed with biotin holoenzyme synthetase (BirA) in Sf9 cells, the Gβ1 subunit becomes covalently biotinylated in vivo at the specific lysine acceptor residue in the BAP. Using this approach, 1-2 mg protein of purified protein can be obtained per liter of Sf9 insect cells. As 45 ng of protein is used in the phage ELISA assay, a single purification is sufficient for 10,000 to 30,000 binding assays.
(§4) Phage ELISA assays used to assess peptide binding to wild-type and mutant b-βγ were performed according to standard methods (Smrcka and Scott (2002) Methods Enzymol. 344:557-76). Briefly, 1 μg streptavidin was immobilized in the well of a […] overnight at 4° C. The wells were blocked with 100 μL of 2% bovine serum albumin (BSA) in Tris-buffered saline (TBS) for 1 hour at 4° C. followed by three washes of IX TBS/0.5% TWEEN®. Forty μL of 25 nM bGβ1γ2 in TBS/0.5% TWEEN® was added to each well and incubated at 4° C. for 1.5 hour. The wells were washed, followed by the addition of IxIO^6 to IxIO^10 phage particles and incubated at 4° C. for 3 hours. The wells were then washed six times with TBS/0.5% TWEEN® followed by addition of 40 μL of 1:5000 dilution of anti-M13 antibody (Pharmacia, Uppsala, Sweden) and incubated at room temperature for 1 hour. The wells were washed, followed by the addition of 40 μL of (2,2′-Azino-bis (3-ethylbenzthiazoline)-6-sulfonic acid (ABTS) and the colorimetric reaction was monitored at 405 nm. Nonspecific binding was subtracted for each reading.
(§5) The nine peptides were selected to represent the different consensus groups of peptides previously identified (See Scott et al. (2001) supra; Table 15) and to compare binding characteristics within and between consensus groups. […] As disclosed herein, the binding signal obtained in the ELISA assay was correlated to a loss in affinity by comparing the results to behavior of the peptide in a solution based assay. […] For the purposes of present disclosure, any substitution that decreased the binding to less than 20% of the wild-type binding was considered to be a critical binding contact for that peptide.

[4] = molecular target: T2, Gβ1γ2 (Gβ1 mutants) (UniProt P54311+P63212, D246S); experiment: as above; parameters: species or system rat; conditions: Gβ1 Asp246Ser; mean ± SD
T2 construct: made in house; host or cells: Sf9 insect cells (baculovirus), partially purified via (His)6-Gαi1 on Ni-NTA
Description: as §3, §4, §5

[5] = molecular target: T3, Gβ1γ2 (Gβ1 mutants) (UniProt P54311+P63212, H311A); experiment: as above; parameters: species or system rat; conditions: Gβ1 His311Ala; mean ± SD
T3 construct: made in house; host or cells: Sf9 insect cells (baculovirus), partially purified via (His)6-Gαi1 on Ni-NTA
Description: as §3, §4, §5

[6] = molecular target: T4, Gβ1γ2 (Gβ1 mutants) (UniProt P54311+P63212, K57A); experiment: as above; parameters: species or system rat; conditions: Gβ1 Lys57Ala; mean ± SD
T4 construct: made in house; host or cells: Sf9 insect cells (baculovirus), partially purified via (His)6-Gαi1 on Ni-NTA
Description: as §3, §4, §5

[7] = molecular target: T5, Gβ1γ2 (Gβ1 mutants) (UniProt P54311+P63212, L117A); experiment: as above; parameters: species or system rat; conditions: Gβ1 Leu117Ala; mean ± SD
T5 construct: made in house; host or cells: Sf9 insect cells (baculovirus), partially purified via (His)6-Gαi1 on Ni-NTA
Description: as §3, §4, §5

[8] = molecular target: T6, Gβ1γ2 (Gβ1 mutants) (UniProt P54311+P63212, M101A); experiment: as above; parameters: species or system rat; conditions: Gβ1 Met101Ala; mean ± SD
T6 construct: made in house; host or cells: Sf9 insect cells (baculovirus), partially purified via (His)6-Gαi1 on Ni-NTA
Description: as §3, §4, §5

[9] = molecular target: T7, Gβ1γ2 (Gβ1 mutants) (UniProt P54311+P63212, M188A); experiment: as above; parameters: species or system rat; conditions: Gβ1 Met188Ala; mean ± SD
T7 construct: made in house; host or cells: Sf9 insect cells (baculovirus), partially purified via (His)6-Gαi1 on Ni-NTA
Description: as §3, §4, §5

[10] = molecular target: T8, Gβ1γ2 (Gβ1 mutants) (UniProt P54311+P63212, N230A); experiment: as above; parameters: species or system rat; conditions: Gβ1 Asn230Ala; mean ± SD
T8 construct: made in house; host or cells: Sf9 insect cells (baculovirus), partially purified via (His)6-Gαi1 on Ni-NTA
Description: as §3, §4, §5

[11] = molecular target: T9, Gβ1γ2 (Gβ1 mutants) (UniProt P54311+P63212, R314A); experiment: as above; parameters: species or system rat; conditions: Gβ1 Arg314Ala; mean ± SD
T9 construct: made in house; host or cells: Sf9 insect cells (baculovirus), partially purified via (His)6-Gαi1 on Ni-NTA
Description: as §3, §4, §5

[12] = molecular target: T10, Gβ1γ2 (Gβ1 mutants) (UniProt P54311+P63212, W332A); experiment: as above; parameters: species or system rat; conditions: Gβ1 Trp332Ala; mean ± SD
T10 construct: made in house; host or cells: Sf9 insect cells (baculovirus), partially purified via (His)6-Gαi1 on Ni-NTA
Description: as §3, §4, §5

[13] = molecular target: T11, Gβ1γ2 (Gβ1 mutants) (UniProt P54311+P63212, W99A); experiment: as above; parameters: species or system rat; conditions: Gβ1 Trp99Ala; mean ± SD
T11 construct: made in house; host or cells: Sf9 insect cells (baculovirus), partially purified via (His)6-Gαi1 on Ni-NTA
Description: as §3, §4, §5

[14] = molecular target: T12, Gβ1γ2 (Gβ1 mutants) (UniProt P54311+P63212, Y145A); experiment: as above; parameters: species or system rat; conditions: Gβ1 Tyr145Ala; mean ± SD
T12 construct: made in house; host or cells: Sf9 insect cells (baculovirus), partially purified via (His)6-Gαi1 on Ni-NTA
Description: as §3, §4, §5

[15] = molecular target: T13, Gβ1γ2 (Gβ1 mutants) (UniProt P54311+P63212, Y59A); experiment: as above; parameters: species or system rat; conditions: Gβ1 Tyr59Ala; mean ± SD
T13 construct: made in house; host or cells: Sf9 insect cells (baculovirus), partially purified via (His)6-Gαi1 on Ni-NTA
Description: as §3, §4, §5

Compound	IC50 [1] [µM]	IC50 [2] [µM]	% of Wild-Type Signal [3] [%]	% of Wild-Type Signal [4] [%]	% of Wild-Type Signal [5] [%]	% of Wild-Type Signal [6] [%]	% of Wild-Type Signal [7] [%]	% of Wild-Type Signal [8] [%]	% of Wild-Type Signal [9] [%]	% of Wild-Type Signal [10] [%]	% of Wild-Type Signal [11] [%]	% of Wild-Type Signal [12] [%]	% of Wild-Type Signal [13] [%]	% of Wild-Type Signal [14] [%]	% of Wild-Type Signal [15] [%]
Nc1c(S(=O)(=O)O)cc(Nc2cccc(S(N)(=O)=O)c2)c2c1C(=O)c1ccccc1C2=O [drawing 62]	10														
Nc1ccc(-c2ccc(Nc3cc(S(=O)(=O)O)c(N)c4c3C(=O)c3ccccc3C4=O)cc2)c(S(=O)(=O)O)c1 [drawing 61]		62													
WCPPKLEQWYDGCA [Compound C2]			267.2 ± 40.6	5.9 ± 5.7	11.7 ± 8.0	−1.2 ± 4.5	1.5 ± 5.5	157.1 ± 51.5	−0.7 ± 2.5	0.0 ± 3.3	1.3 ± 3.1	4.7 ± 6.2	−1.0 ± 5.1	4.5 ± 8.1	−1.7 ± 4.8
Nc1cccc(Nc2cc(S(=O)(=O)O)c(N)c3c2C(=O)c2ccccc2C3=O)c1 [drawing 60]		15													
Nc1cccc(Nc2cc(S(=O)(=O)O)c(N)c3c2C(=O)c2ccccc2C3=O)c1 [drawing 64]	6														
SCEKRYGIEFCT [Compound C4]			51.3 ± 15.0	35.8 ± 7.4	36.5 ± 8.3	−0.2 ± 1.9	18.4 ± 7.1	61.2 ± 30.9	127.5 ± 22.4	11.5 ± 6.0	1.4 ± 1.0	1.7 ± 3.0	67.0 ± 15.2	4.4 ± 3.8	7.6 ± 9.6
SCEKRLGVRSCT (phage-displayed) [Compound C5]			45.7 ± 5.2	56.3 ± 4.1	58.7 ± 14.4	5.6 ± 5.3	28.5 ± 5.2	47.8 ± 18.9	97.2 ± 14.2	33.5 ± 7.2	76.5 ± 6.7	3.2 ± 3.7	39.0 ± 3.8	16.7 ± 4.8	73.8 ± 16.6
Nc1ccc(Nc2cc(S(=O)(=O)O)c(N)c3c2C(=O)c2ccccc2C3=O)cc1 [drawing 63]	2.5														
WCPPKAMTQLGIKAC [Compound C14]			3.6 ± 1.9	6.3 ± 13.9	6.1 ± 3.4	3.0 ± 5.0	3.8 ± 9.2	1.1 ± 4.9	9.9 ± 3.8	60.0 ± 26.5	3.9 ± 7.9	1.6 ± 2.4	10.1 ± 3.3	1.9 ± 5.9	3.6 ± 2.0
Nc1ccc(-c2ccc(Nc3cc(S(=O)(=O)O)c(N)c4c3C(=O)c3ccccc3C4=O)cc2)c(S(=O)(=O)O)c1 [drawing 65]	16														
LCSKAYLLLGQTC [Compound 2F]			2.4 ± 3.5	0.6 ± 2.5	23.6 ± 46.0	−4.5 ± 6.2	2.1 ± 5.5	6.0 ± 5.1	8.5 ± 5.2	27.6 ± 19.1	2.4 ± 3.9	−1.5 ± 3.6	32.6 ± 26.3	0.1 ± 6.5	−2.0 ± 9.5
SCGHGLKVQSTIGACA [Compound 3C]			35.0 ± 17.2	2.0 ± 2.7	30.5 ± 18.9	3.6 ± 7.5	10 ± 13.3	−4.2 ± 5.5	−5.7 ± 5.6	4.1 ± 4.4	8.3 ± 3.6	−0.3 ± 1.7	−0.5 ± 5.9	2.7 ± 10.5	8.5 ± 6.4
SCARFFGTPGCT [Compound C8]			124.9 ± 29.1	60.8 ± 14.4	51.6 ± 13.2	14.2 ± 9.8	24.7 ± 12.5	23.6 ± 8.5	122.6 ± 26.2	74.8 ± 14.8	20.8 ± 11.1	0.7 ± 2.4	−0.8 ± 2.7	17.5 ± 7.8	4.0 ± 6.2
Nc1c(S(=O)(=O)O)cc(Nc2cccc(S(N)(=O)=O)c2)c2c1C(=O)c1ccccc1C2=O [drawing 58]		58													
Nc1ccc(Nc2cc(S(=O)(=O)O)c(N)c3c2C(=O)c2ccccc2C3=O)cc1 [drawing 59]		12													
